Source: patent US20210322564A1 (ADC THERAPEUTICS, published 2021)

Biological target: T1, CD19 (human, UniProt P15391 20-556)
T1 sequence (looked up): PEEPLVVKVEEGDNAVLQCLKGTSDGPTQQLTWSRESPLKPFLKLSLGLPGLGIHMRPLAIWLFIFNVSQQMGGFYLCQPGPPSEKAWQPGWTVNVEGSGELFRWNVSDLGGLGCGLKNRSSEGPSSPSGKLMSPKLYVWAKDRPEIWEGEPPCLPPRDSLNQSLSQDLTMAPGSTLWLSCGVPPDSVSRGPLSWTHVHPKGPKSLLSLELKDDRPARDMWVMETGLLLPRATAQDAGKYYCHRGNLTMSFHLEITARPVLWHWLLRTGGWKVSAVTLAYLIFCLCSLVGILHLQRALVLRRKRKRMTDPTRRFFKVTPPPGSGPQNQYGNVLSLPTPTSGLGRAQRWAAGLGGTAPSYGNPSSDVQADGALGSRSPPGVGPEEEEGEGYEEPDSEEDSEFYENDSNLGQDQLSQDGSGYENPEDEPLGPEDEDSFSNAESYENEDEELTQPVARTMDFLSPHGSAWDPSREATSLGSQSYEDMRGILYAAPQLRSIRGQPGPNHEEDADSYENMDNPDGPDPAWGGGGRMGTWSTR
Test: cell-based or functional assay

IC50, MTT proliferation assay, 96 h exposure, median over 48 B-cell lymphoma cell lines: 4 pM
B1: ADCx19 (antibody, V domains shown)
VH: QVQLVQPGAEVVKPGASVKLSCKTSGYTFTSNWMHWVKQAPGQGLEWIGEIDPSDSYTNYNQNFQGKAKLTVDKSTSTAYMEVSSLRSDDTAVYYCARGSNPYYYAMDYWGQGTSVTVS
VL: EIVLTQSPAIMSASPGERVTMTCSASSGVNYMHWYQQKPGTSPRRWIYDTSKLASGVPARFSGSGSGTSYSLTISSMEPEDAATYYCHQRGSYTFGGGTKLEIK
modifications: pyrrolobenzodiazepine (PBD) dimer warhead attached via a cleavable linker, DAR 2+/-0.3; attachment residues not stated
